{
  "source": "patent US20030203372A1",
  "about": "“Analysis method” (priority 2000, published 2003)",
  "molecules": {"B1": {"name": "p1E4 (nucleic acid, listed as Homo Sapiens)", "DNA": "AATTATATATTACATGTTTATTAAGAGCACAACTTTTATGTAAAATTTACATTTAATGAAAAAAATCAAAAATATTTACAAAATCTTGGAAGACAGATGTGCATTGTTCTAATTACAATCCAAAGTAGTAAATAACAATCCTTTAAAACTCACATTTATTAGAGTTGTGTTTACAAATTCTTGGTTAAAGAGGCAGCTACAAAGTTTACCACTATATATAAGCAAGAACCAGCTTGCTAGGTACATTTCCCATTGAAAATCTACTGGTCTCTTTTACACCATTAGTGGATTTTTAAATGGAAAAAAAAAATCAATATAAACTCATATGGCTTCAAAATTGTA", "modifications": "EST array clone"}},
  "key": {"[1]": {"tested_on": "primary human cell cultures (11 cell types)", "experiment": "Custom gene array, 11 human cell types in normoxia or hypoxia for 6 hr and 18 hr;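 on mRNA expression level, #1 HY 18 hr: cell type #1 is adipocyte from subcutaneous adult adipose tissue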;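 on mRNA expression level, #1 HY 6 hr: cell type #1 is adipocyte from subcutaneous adult adipose tissue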;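 on mRNA expression level, #1 NO: cell type #1 is adipocyte from subcutaneous adult adipose tissue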;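 on mRNA expression level, #2 HY 18 hr: cell type #2 is fetal cardiomyocyte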;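 on mRNA expression level, #2 HY 6 hr: cell type #2 is fetal cardiomyocyte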;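 on mRNA expression level, #2 NO: cell type #2 is fetal cardiomyocyte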;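 on mRNA expression level, #3 HY 6 hr: cell type #3 is human umbilical vein endothelial cells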;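 on mRNA expression level, #3 NO: cell type #3 is human umbilical vein endothelial cells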;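 on mRNA expression level, #4 HY 18 hr: cell type #4 is adult dermal fibroblast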;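 on mRNA expression level, #4 HY 6 hr: cell type #4 is adult dermal fibroblast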;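 on mRNA expression level, #4 NO: cell type #4 is adult dermal fibroblast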;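 on mRNA expression level, #5 HY 6 hr: cell type #5 is adult hepatocyte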;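 on mRNA expression level, #5 NO: cell type #5 is adult hepatocyte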;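 on mRNA expression level, #6 HY 6 hr: cell type #6 is blood-derived macrophage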;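 on mRNA expression level, #6 NO: cell type #6 is blood-derived macrophage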", "format": "cell-based", "method_in_brief": "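Values are each gene's expression relative to its median over all cell types and conditions, after per-array normalisation to control genes and merging of replicate arrays. Cells were 11 human types, mostly unmodified primary cultures, kept in normoxia or exposed to hypoxia for 6 hr or 18 hr.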"}, "human macrophages": {"tested_on": "human macrophages", "experiment": "Custom gene array, macrophages with no cytokines, IL-10 or LPS + IFN, in normoxia and hypoxia", "format": "cell-based", "conditions": "Table 16, referenced to median of the gene over 6 conditions", "method_in_brief": "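Cultured macrophages were left untreated or given IL-10 or LPS + IFN, each at 100 ng/ml final, for 6 hr under normoxia or hypoxia (0.1% oxygen). Six conditions in total.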"}, "[2]": {"tested_on": "human breast and ovary tumors", "experiment": "Custom gene array, breast and ovary tumors versus normal adjacent tissue", "conditions": "Table 19", "method_in_brief": "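Values are per-gene relative to that gene's median across the series, after per-chip normalisation for labelling and hybridization efficiency. Samples: breast and ovary tumors with normal tissue from 5 patients of varied diagnoses, mostly from the same individual (one age-matched separate donor), compared within patient.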"}},
  "data": [
    {"molecule": "B1", "values": [
      {"measurement": "mRNA expression level, #1 HY 6 hr", "setting": "[1]; cell type #1, hypoxia 6 hr", "result": 0.51},
      {"measurement": "mRNA expression level, #1 HY 18 hr", "setting": "[1]; cell type #1, hypoxia 18 hr", "result": 0.79},
      {"measurement": "mRNA expression level, #1 NO", "setting": "[1]; cell type #1, normoxia", "result": 0.65},
      {"measurement": "mRNA expression level, #2 HY 6 hr", "setting": "[1]; cell type #2, hypoxia 6 hr", "result": 1.24},
      {"measurement": "mRNA expression level, #2 HY 18 hr", "setting": "[1]; cell type #2, hypoxia 18 hr", "result": 1.18},
      {"measurement": "mRNA expression level, #2 NO", "setting": "[1]; cell type #2, normoxia", "result": 1.06},
      {"measurement": "mRNA expression level, #3 HY 6 hr", "setting": "[1]; cell type #3, hypoxia 6 hr", "result": 1.57},
      {"measurement": "mRNA expression level, #3 HY 18 hr", "setting": "[1]; cell type #3, hypoxia 18 hr", "result": 1.70},
      {"measurement": "mRNA expression level, #3 NO", "setting": "[1]; cell type #3, normoxia", "result": 1.59},
      {"measurement": "mRNA expression level, #4 HY 6 hr", "setting": "[1]; cell type #4, hypoxia 6 hr", "result": 0.76},
      {"measurement": "mRNA expression level, #4 HY 18 hr", "setting": "[1]; cell type #4, hypoxia 18 hr", "result": 0.91},
      {"measurement": "mRNA expression level, #4 NO", "setting": "[1]; cell type #4, normoxia", "result": 0.80},
      {"measurement": "mRNA expression level, #5 HY 6 hr", "setting": "[1]; cell type #5, hypoxia 6 hr", "result": 0.39},
      {"measurement": "mRNA expression level, #5 NO", "setting": "[1]; cell type #5, normoxia", "result": 0.34},
      {"measurement": "mRNA expression level, #6 HY 6 hr", "setting": "[1]; cell type #6, hypoxia 6 hr", "result": 1.13},
      {"measurement": "#6 HY 18 hr (mRNA expression level)", "setting": "[1]; cell type #6, hypoxia 18 hr", "result": 1.21},
      {"measurement": "mRNA expression level, #6 NO", "setting": "[1]; cell type #6, normoxia", "result": 0.97},
      {"measurement": "#7 HY 6 hr (mRNA expression level)", "setting": "[1]; cell type #7, hypoxia 6 hr", "result": 1.17},
      {"measurement": "#7 HY 18 hr (mRNA expression level)", "setting": "[1]; cell type #7, hypoxia 18 hr", "result": 0.82},
      {"measurement": "#7 NO (mRNA expression level)", "setting": "[1]; cell type #7, normoxia", "result": 1.65},
      {"measurement": "#8 HY 6 hr (mRNA expression level)", "setting": "[1]; cell type #8, hypoxia 6 hr", "result": 1.28},
      {"measurement": "#8 HY 18 hr (mRNA expression level)", "setting": "[1]; cell type #8, hypoxia 18 hr", "result": 1.71},
      {"measurement": "#8 NO (mRNA expression level)", "setting": "[1]; cell type #8, normoxia", "result": 0.74},
      {"measurement": "#9 HY 6 hr (mRNA expression level)", "setting": "[1]; cell type #9, hypoxia 6 hr", "result": 0.97},
      {"measurement": "#9 HY 18 hr (mRNA expression level)", "setting": "[1]; cell type #9, hypoxia 18 hr", "result": 0.93},
      {"measurement": "#9 NO (mRNA expression level)", "setting": "[1]; cell type #9, normoxia", "result": 0.95},
      {"measurement": "#10 HY 6 hr (mRNA expression level)", "setting": "[1]; cell type #10, hypoxia 6 hr", "result": 1.35},
      {"measurement": "#10 HY 18 hr (mRNA expression level)", "setting": "[1]; cell type #10, hypoxia 18 hr", "result": 1.44},
      {"measurement": "#10 NO (mRNA expression level)", "setting": "[1]; cell type #10, normoxia", "result": 0.78},
      {"measurement": "#11 HY 6 hr (mRNA expression level)", "setting": "[1]; cell type #11, hypoxia 6 hr", "result": 1.48},
      {"measurement": "#11 HY 18 hr (mRNA expression level)", "setting": "[1]; cell type #11, hypoxia 18 hr", "result": 1.35},
      {"measurement": "#11 NO (mRNA expression level)", "setting": "[1]; cell type #11, normoxia", "result": 1.30},
      {"measurement": "HIGHEST FOLD CHANGE IN HYPOXIA (hr hypoxia + cell type)", "setting": "[1]; hypoxia/normoxia induction ratio, 18 hr monocyte", "result": "2.31 (18 hr monocyte) fold"},
      {"measurement": "mRNA EXPRESSION (experimental condition) #1", "setting": "human macrophages; #1 no cytokines/normoxia", "result": 1.22},
      {"measurement": "mRNA EXPRESSION (experimental condition) #2", "setting": "human macrophages; #2 no cytokines/hypoxia", "result": 1.13},
      {"measurement": "mRNA EXPRESSION (experimental condition) #3", "setting": "human macrophages; #3 IL-10/normoxia", "result": 1.09},
      {"measurement": "mRNA EXPRESSION (experimental condition) #4", "setting": "human macrophages; #4 IL-10/hypoxia", "result": 0.96},
      {"measurement": "mRNA EXPRESSION (experimental condition) #5", "setting": "human macrophages; #5 LPS/IFN/normoxia", "result": 0.40},
      {"measurement": "mRNA EXPRESSION (experimental condition) #6", "setting": "human macrophages; #6 LPS/IFN/hypoxia", "result": 0.40},
      {"measurement": "gene expression level on custom gene array, Breast nor H", "setting": "[2]; breast, normal adjacent tissue, patient H", "result": 1.00},
      {"measurement": "gene expression level on custom gene array, Breast nor K", "setting": "[2]; breast, normal adjacent tissue, patient K", "result": 1.06},
      {"measurement": "gene expression level on custom gene array, Breast tum H", "setting": "[2]; breast, tumor tissue, patient H", "result": 0.69},
      {"measurement": "gene expression level on custom gene array, Breast tum K", "setting": "[2]; breast, tumor tissue, patient K", "result": 0.46},
      {"measurement": "gene expression level on custom gene array, Ovary nor E", "setting": "[2]; ovary, normal adjacent tissue, patient E", "result": 1.30},
      {"measurement": "gene expression level on custom gene array, Ovary nor F", "setting": "[2]; ovary, normal adjacent tissue, patient F", "result": 0.88},
      {"measurement": "gene expression level on custom gene array, Ovary nor G", "setting": "[2]; ovary, normal adjacent tissue, patient G", "result": 0.70},
      {"measurement": "gene expression level on custom gene array, Ovary tum E", "setting": "[2]; ovary, tumor tissue, patient E", "result": 1.67},
      {"measurement": "gene expression level on custom gene array, Ovary tum F", "setting": "[2]; ovary, tumor tissue, patient F", "result": 0.65},
      {"measurement": "gene expression level on custom gene array, Ovary tum G", "setting": "[2]; ovary, tumor tissue, patient G", "result": 0.17}
    ]}
  ]
}
